Data reported in US20240317847A1 (Bayer, published 2024).
Numbering of substitutions follows the chain as printed. Values belong to the binder of their own block, whether it stands above or below them.

Key:
cynomolgus IL-11 = molecular target: T1, cynomolgus IL-11 (cynomolgus, UniProt P20808 22-199); test: SPR (Biacore), 25 C, antibody captured via anti-Fc, IL-11 as analyte, determined in steady state; SPR at 25 C, determined in steady state
T1 construct: Invigate recombinant protein; also called cIL11; Macaca IL-11
T1 sequence: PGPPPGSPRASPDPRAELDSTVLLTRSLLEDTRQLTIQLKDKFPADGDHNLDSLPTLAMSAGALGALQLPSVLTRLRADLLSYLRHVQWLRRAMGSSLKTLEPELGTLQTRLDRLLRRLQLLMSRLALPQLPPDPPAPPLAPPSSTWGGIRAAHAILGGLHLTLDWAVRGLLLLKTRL
Procedure: (§1) To assess the binding kinetics and affinity of anti-IL-11 bispecific antibodies as well as their species cross-reactivity profile, binding assays were conducted using surface plasmon resonance (SPR). […] Antibodies were captured either via anti-human Fc IgGs (“Human antibody capture kit”, Order No. BR100839, Cytiva) or via anti-mouse Fc IgGs (“Mouse antibody capture kit, Order No. BR100383, Cytiva) covalently amine coupled to a Series S CM5 sensor chip (Cytiva) depending on the isotype. The amine coupling was carried out according to the manufacturer's instructions using 1-ethyl-3-(3-dimethylaminopropyl) carbodiimide hydrochloride (EDC), N-hydroxysuccinimide (NHS) and ethanolamine HCl, pH 8.5 (“Amine Coupling Kit” BR-1000-50, Cytiva.). Human, mouse, cynomolgus or rat IL-11 was used as analyte at several dilutions within the concentration range from 0.05-200 nM. For binding assays with only one concentration 200 nM IL-11 was used. The sensor surface was regenerated with glycine pH 1.7 after each antigen injection. Obtained sensorgrams were double referenced (subtraction of reference flow cell signal and buffer injection) and were fitted to a 1:1 Langmuir binding model to derive kinetic data using the Biacore T200 Evaluation software or the Biacore Insight software.
(§2) If no value is reported, there was either no binding or very low binding and multiphasic binding behavior.

rat IL-11 = molecular target: T2, rat IL-11 (rat, UniProt Q99MF5 22-199); test: as above
T2 construct: Invigate recombinant protein; also called rIL11
T2 sequence: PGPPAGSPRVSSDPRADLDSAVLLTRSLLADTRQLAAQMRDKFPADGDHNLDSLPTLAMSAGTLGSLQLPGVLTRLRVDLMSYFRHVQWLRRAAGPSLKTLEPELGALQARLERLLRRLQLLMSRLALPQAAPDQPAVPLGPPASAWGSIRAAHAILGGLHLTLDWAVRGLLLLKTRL
Procedure: as §1, §2

murine IL-11 [1] = molecular target: T3, murine IL-11 (mouse, UniProt P47873 22-199); test: SPR (Biacore), 25 C, antibody captured via anti-Fc, IL-11 as analyte, determined in steady state
T3 construct: Invigate recombinant protein; biotinylated when immobilized in the Di-complex ELISA; also called mIL11; mIL-11
T3 sequence: T2 sequence with N50S, F84L, A94G, A137V, V138I

human IL2Ra = molecular target: T4, human IL2Ra (human, UniProt P01589 22-240, limits assumed); test: IL2Ra direct binding ELISA, signal ratio to isotype control
T4 construct: bought protein, coated on the plate; also called hIL2RA; IL-2 receptor alpha
T4 sequence (looked up): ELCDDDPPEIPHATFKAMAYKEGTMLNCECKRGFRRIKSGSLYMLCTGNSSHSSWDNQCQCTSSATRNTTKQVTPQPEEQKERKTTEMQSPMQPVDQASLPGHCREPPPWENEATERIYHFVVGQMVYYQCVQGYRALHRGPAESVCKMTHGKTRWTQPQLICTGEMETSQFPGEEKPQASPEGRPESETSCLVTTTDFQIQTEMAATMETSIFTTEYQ
Summary of the method: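 Plates coated overnight at 4-8 °C with IL2RA at 1 or 0 μg/ml, blocked with SmartBlock. Antibody dilution series from 1E-7 to 2E-13 M bound 90 min at room temperature, detected with HRP anti-mouse IgG and Amplex red/H2O2; fluorescence at 535/590 nm.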

human IL-11 = molecular target: T5, human IL-11 (human, UniProt P20809 22-199); test: Di-complex ELISA, canine IL11RA-hFc binding to immobilized hIL-11, competition
T5 construct: Invigate recombinant protein; biotinylated when immobilized in the Di-complex ELISA; also called hIL11; hIL-11
T5 sequence: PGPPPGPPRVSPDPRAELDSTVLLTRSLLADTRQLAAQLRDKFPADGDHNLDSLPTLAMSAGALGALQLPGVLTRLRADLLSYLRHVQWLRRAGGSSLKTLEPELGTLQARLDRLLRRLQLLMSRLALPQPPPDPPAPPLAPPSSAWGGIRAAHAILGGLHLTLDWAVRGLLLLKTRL
Procedure: (§3) In the Di-complex ELISA format anti IL-11 antibodies are tested for the ability to interfere with the formation of complexes consisting of immobilized murine IL-11 (Invigate, e.g., lot #C210819-09) or human IL-11 (Invigate, e.g., lot #C121021-19), and murine IL11RA-Fc fusion proteins or canine IL11RA-human-Fc fusion protein (FIG. 17a, b).
(§4) Bispecific antibodies were subjected to the experimental assay procedure described in Example 18 and IC50 [M], respectively efficacy (%) were calculated accordingly.

murine IL-11 [2] = molecular target: T3, murine IL-11; test: Di-complex ELISA, canine IL11RA-hFc binding to immobilized mIL-11, competition
Procedure: as §3, §4

Kd (cynomolgus IL-11): 56 nM
Kd (rat IL-11): 34 nM
Kd (murine IL-11 [1]): 33 nM
B1: TPP-18087 (antibody, mouse IgG1, V domains shown)
VH: EVQLLESGGGLVQPGGSLRLSCAASGFTFSHYDMNWLRQAPGKGLEWVGVISYDGSNKFYADFVKGRFTISRDNSKNTLYLQMNSLRAEDTAVYYCARTPGSHFDYWGQGTLVTVSS
VL: QSVLTQPPSASGTPGQRVTISCSGSSSNIGNNAVNWYQQLPGTAPKLLIYYDDLLPSGVPDRFSGSKSGTSASLAISGLRSEDEADYYCSAWDDSLNGVVFGGGTKLTVLG
notes: mIgG1, Lambda

hIL2RA ELISA Binding: Ratio to Isotpye (human IL2Ra): 398 ratio
B2: TPP-18068 (antibody, mouse IgG1)
heavy: EVQLLESGGGLVQPGGSLRLSCAASGFTFSSYGMHWVRQAPGKGLEWVSVISYDGSYKYYADSVKGRFTISRDNSKNTLYLQMNSLRAEDTAVYYCAAGVPDYWGQGTLVTVSSAKTTPPSVYPLAPGSAAQTNSMVTLGCLVKGYFPEPVTVTWNSGSLSSGVHTFPAVLQSDLYTLSSSVTVPSSTWPSETVTCNVAHPASSTKVDKKIVPRDCGCKPCICTVPEVSSVFIFPPKPKDVLTITLTPKVTCVVVDISKDDPEVQFSWFVDDVEVHTAQTQPREEQFNSTFRSVSELPIMHQDWLNGKEFKCRVNSAAFPAPIEKTISKTKGRPKAPQVYTIPPPKEQMAKDKVSLTCMITDFFPEDITVEWQWNGQPAENYKNTQPIMDTDGSYFVYSKLNVQKSNWEAGNTFTCSVLHEGLHNHHTEKSLSHSPGK
light: QSVLTQPPSASGTPGQRVTISCTGSSSNIGAGYDVHWYQQLPGTAPKLLIYSNNERPSGVPDRFSGSKSGTSASLAISGLRSEDEADYYCAAWDDSLNGPVFGGGTKLTVLGQPKSSPSVTLFPPSSEELETNKATLVCTITDFYPGVVTVDWKVDGTPVTQGMETTQPSKQSNNKYMASSYLTLTARAWERHSSYSCQVTHEGHTVEKSLSRADCS
notes: mIgG1, Lambda

IC50 (human IL-11): 1.7 nM
IC50 (murine IL-11 [2]): 3.9 nM
B3: TPP-29603 (bispecific antibody, IgG1)
chain 1: QVQLVESGGGVVQPGRSLRLSCAASGFTFSHYDMHWVRQAPGKGLEWVAVISYHGSVKFYADSVKGRFTISRDNSKNTLYLQMNSLRAEDTAVYYCARTPGFHFDYWGQGTLVTVSSGGGGSGGGGSGGGGSQSVLTQPPSASGTPGQRVTISCSGSSSNIGSNYVSWYQQLPGTAPKLLIYYDDLRPSGVPDRFSGSKSGTSASLAISGLRSEDEADYYCSAWDDSLSGVVFGGGTKLTVLGGGGSGGGGSGGGGSGVECPPCPAPPVAGPSVFIFPPKPKDVLTITLTPKVTCVVVDISKDDPEVQFSWFVDDVEVHTAQTQPREEQFNSTFRSVSELPIMHQDWLNGKEFKCRVNSAAFPAPIEKTISKTKGRPKAPQVYTIPPCKEQMAKDKVSLWCMITDFFPEDITVEWQWNGQPAENYKNTQPIMDTDGSYFVYSKLNVQKSNWEAGNTFTCSVLHEGLHNHHTEKSLSHSPGK
chain 2: EVQLLESGGGLVQPGGSLRLSCAASGFTFSSYGMHWVRQAPGKGLEWVAVISYDGSYKYYADSVKGRFTISRDNSKNTLYLQMNSLRAEDTAVYYCAAGVPDYWGQGTLVTVSSGGGGSGGGGSGGGGSQSVLTQPPSASGTPGQRVTISCSGSSSNIGSDYDVHWYQQLPGTAPKLLIYSNEERPSGVPDRFSGSKSGTSASLAISGLRSEDEADYYCSAWDSSLSGPVFGGGTKLTVLGGGGSGGGGSGGGGSGVECPPCPAPPVAGPSVFIFPPKPKDVLTITLTPKVTCVVVDISKDDPEVQFSWFVDDVEVHTAQTQPREEQFNSTFRSVSELPIMHQDWLNGKEFKCRVNSAAFPAPIEKTISKTKGRPKAPQVCTIPPPKEQMAKDKVSLSCAITDFFPEDITVEWQWNGQPAENYKNTQPIMDTDGSYFVVSKLNVQKSNWEAGNTFTCSVLHEGLHNHHTEKSLSHSPGK
notes: scFv-kih-mIgG1; bispecific comprising CDRs of TPP-29528 and TPP-29519
